# Results: US11466286B2, “Methods and compositions for conferring and/or enhancing herbicide tolerance using protoporphyrinogen oxidase or variant thereof” (FarmHannong Co., Ltd., priority 2016, dated 2022)
# Test system: CyPPO10
# Test: PPO enzyme activity and IC50 by herbicides, CyPPO10 wild type and variants (MBP-PPO fusion)
# Assay type: biochemical, Thermosynechococcus elongatus BP-1
# Details: PPO enzyme activity of CyPPO10 protein, wild type = 100
# Method: The enzyme activities of PPO protein and PPO protein variants were examined, and inhibition assay by PPO-inhibiting herbicides was conducted. It was confirmed that the PPO protein has low water-solubility, but in case of being expressed as a fusion protein with MBP (maltose binding protein) (MBP-PPO), the PPO protein is able to be stably expressed as water-soluble form. Therefore, the wild type and variant proteins which were expressed in the form of fusion protein with MBP were used in the present test (refer to FIG. 4).
# In order to express wild type genes and mutant genes of CyPPO10 and CyPPO13 (refer to Example 1 and Example 4), those genes were introduced to pMAL-c2X vector (refer to FIG. 5) respectively, and then cloned to BL21 (DE3) E. coli (CodonPlus).
# The enzyme activity of the purified wild type protein and variant proteins of CyPPO10 and CyPPO13 was measured by the following process.
# At first, a substrate of PPO protein, Protoporphyrinogen IX was synthesized. This process was performed in the space where nitrogen gas is streamed. 6 mg of protoporphyrin IX was dissolved in 20% (v/v) EtOH 20 ml, and stirred under dark condition for 30 minutes. The obtained protoporphyrinogen IX solution was put into a 15 ml screw tube in an amount of 800 and flushed with nitrogen gas for 5 minutes. To this, 1 g of sodium amalgam was added and vigorous shaking was performed for 2 minutes. The lid was open to exhaust hydrogen gas in the tube. Thereafter, the lid was closed and incubated for 3 minutes. The […] was filtered using syringe and cellulose membrane filter. To 600 μl of the obtained […], 2M MOPS [3-(N-morpholino)propanesulfonic acid] was added in an amount of approximately 300 thereby adjusting pH to 8.0. To determine the enzyme activity of PPO protein, a reaction mixture was prepared with the following composition (based on 10 ml): 50 mM Tris-Cl (pH 8.0); 50 mM NaCl; 0.04% (v/v) Tween 20; 40 mM glucose (0.072 g); 5 units glucose oxidase (16.6 mg); and 10 units catalase (1 μl).
# Two hundred microliters (200 μl) of reaction mixture containing a purified PPO protein were placed in 96 well plates, and preincubated for 30 min at room temperature to reduce the oxygen concentration by the reaction of glucose oxidase-catalase. The mineral oil was layered and then the reaction was initiated by adding the substrate, […], to a final concentration of 50 μM. The reaction proceeded at room temperature for 30 min and the fluorescence of protoporphyrin IX was measured using Microplate reader (Sense, Hidex) (excitation: 405 nm; emission: 633 nm). To calculate the PPO enzyme activity, protoporphyrinogen IX solution was kept open in the air to oxidize the solution (overnight). To this, 2.7N HCl was added, and the absorbance at 408 nm was measured. A standard curve was generated using standard protoporphyrin IX, and the PPO activity was measured by calibration of protoporphyrin IX using the standard curve of protoporphyrin IX.
# The final concentration of each herbicide was as follows: […]
row,Molecule,Activity (%)
1,"CyPPO10 V165S + F360V: CyPPO10 (SEQ ID NO: 2) PPO variant (protein, Synthetic CyPPO10) MIEVDVAIVGGGLSGLSVAWRLQRSAPHYSGVLLEASDRLGGNITTQAAEGFVWELGPNSFAPTPALLQLIAEVGLHSELIRGDRHLPRYIYWRGELYPLEPTRPLALATSNLLSPWGKVRAALGALGFVPPYLGSGDESVDSFFRRHLGQEVAERLVAPFVSGSYAGDPQQLSAAAAFRRIAQLEKLGGSLIAGALRLRRQQPPQPKPPAQVQMRPGELGSFREGLAALPRAIAQQLKAPLHLQTPVEAITPEPKGGYLLRSGEQTWHARSVVLATPAYQTAELVAPFQPAIARALATIPYPTVACVVLAYPAGLGRSVRPGFGVLVPRGQGIRTLGTIWSSCLFPQRTPAGWQVFTSVIGGATDPDLASLREEAIVEQVQQDLTRLLDLPAAKARLLGMKVWRRAIPQYIVGYPQQWQQVTHALTQTPGLFLCSNYAEGVALGDRVEHGNRTAAAVAAYLAGGQS",52
2,"CyPPO10 V305M + F360M: CyPPO10 (SEQ ID NO: 2) PPO variant (protein, Synthetic CyPPO10) MIEVDVAIVGGGLSGLSVAWRLQRSAPHYSGVLLEASDRLGGNITTQAAEGFVWELGPNSFAPTPALLQLIAEVGLHSELIRGDRHLPRYIYWRGELYPLEPTRPLALATSNLLSPWGKVRAALGALGFVPPYLGSGDESVDSFFRRHLGQEVAERLVAPFVSGVYAGDPQQLSAAAAFRRIAQLEKLGGSLIAGALRLRRQQPPQPKPPAQVQMRPGELGSFREGLAALPRAIAQQLKAPLHLQTPVEAITPEPKGGYLLRSGEQTWHARSVVLATPAYQTAELVAPFQPAIARALATIPYPTMACVVLAYPAGLGRSVRPGFGVLVPRGQGIRTLGTIWSSCLFPQRTPAGWQVFTSMIGGATDPDLASLREEAIVEQVQQDLTRLLDLPAAKARLLGMKVWRRAIPQYIVGYPQQWQQVTHALTQTPGLFLCSNYAEGVALGDRVEHGNRTAAAVAAYLAGGQS",87
3,"CyPPO10 A167L + F360I: CyPPO10 (SEQ ID NO: 2) PPO variant (protein, Synthetic CyPPO10) MIEVDVAIVGGGLSGLSVAWRLQRSAPHYSGVLLEASDRLGGNITTQAAEGFVWELGPNSFAPTPALLQLIAEVGLHSELIRGDRHLPRYIYWRGELYPLEPTRPLALATSNLLSPWGKVRAALGALGFVPPYLGSGDESVDSFFRRHLGQEVAERLVAPFVSGVYLGDPQQLSAAAAFRRIAQLEKLGGSLIAGALRLRRQQPPQPKPPAQVQMRPGELGSFREGLAALPRAIAQQLKAPLHLQTPVEAITPEPKGGYLLRSGEQTWHARSVVLATPAYQTAELVAPFQPAIARALATIPYPTVACVVLAYPAGLGRSVRPGFGVLVPRGQGIRTLGTIWSSCLFPQRTPAGWQVFTSIIGGATDPDLASLREEAIVEQVQQDLTRLLDLPAAKARLLGMKVWRRAIPQYIVGYPQQWQQVTHALTQTPGLFLCSNYAEGVALGDRVEHGNRTAAAVAAYLAGGQS",32
4,"CyPPO10 R89A + V305T + F360M: CyPPO10 (SEQ ID NO: 2) PPO variant (protein, Synthetic CyPPO10) MIEVDVAIVGGGLSGLSVAWRLQRSAPHYSGVLLEASDRLGGNITTQAAEGFVWELGPNSFAPTPALLQLIAEVGLHSELIRGDRHLPAYIYWRGELYPLEPTRPLALATSNLLSPWGKVRAALGALGFVPPYLGSGDESVDSFFRRHLGQEVAERLVAPFVSGVYAGDPQQLSAAAAFRRIAQLEKLGGSLIAGALRLRRQQPPQPKPPAQVQMRPGELGSFREGLAALPRAIAQQLKAPLHLQTPVEAITPEPKGGYLLRSGEQTWHARSVVLATPAYQTAELVAPFQPAIARALATIPYPTTACVVLAYPAGLGRSVRPGFGVLVPRGQGIRTLGTIWSSCLFPQRTPAGWQVFTSMIGGATDPDLASLREEAIVEQVQQDLTRLLDLPAAKARLLGMKVWRRAIPQYIVGYPQQWQQVTHALTQTPGLFLCSNYAEGVALGDRVEHGNRTAAAVAAYLAGGQS",5
5,"CyPPO10 A167C + F360M: CyPPO10 (SEQ ID NO: 2) PPO variant (protein, Synthetic CyPPO10) MIEVDVAIVGGGLSGLSVAWRLQRSAPHYSGVLLEASDRLGGNITTQAAEGFVWELGPNSFAPTPALLQLIAEVGLHSELIRGDRHLPRYIYWRGELYPLEPTRPLALATSNLLSPWGKVRAALGALGFVPPYLGSGDESVDSFFRRHLGQEVAERLVAPFVSGVYCGDPQQLSAAAAFRRIAQLEKLGGSLIAGALRLRRQQPPQPKPPAQVQMRPGELGSFREGLAALPRAIAQQLKAPLHLQTPVEAITPEPKGGYLLRSGEQTWHARSVVLATPAYQTAELVAPFQPAIARALATIPYPTVACVVLAYPAGLGRSVRPGFGVLVPRGQGIRTLGTIWSSCLFPQRTPAGWQVFTSMIGGATDPDLASLREEAIVEQVQQDLTRLLDLPAAKARLLGMKVWRRAIPQYIVGYPQQWQQVTHALTQTPGLFLCSNYAEGVALGDRVEHGNRTAAAVAAYLAGGQS",90
6,"CyPPO10 S60T + V165S + F360M: CyPPO10 (SEQ ID NO: 2) PPO variant (protein, Synthetic CyPPO10) MIEVDVAIVGGGLSGLSVAWRLQRSAPHYSGVLLEASDRLGGNITTQAAEGFVWELGPNTFAPTPALLQLIAEVGLHSELIRGDRHLPRYIYWRGELYPLEPTRPLALATSNLLSPWGKVRAALGALGFVPPYLGSGDESVDSFFRRHLGQEVAERLVAPFVSGSYAGDPQQLSAAAAFRRIAQLEKLGGSLIAGALRLRRQQPPQPKPPAQVQMRPGELGSFREGLAALPRAIAQQLKAPLHLQTPVEAITPEPKGGYLLRSGEQTWHARSVVLATPAYQTAELVAPFQPAIARALATIPYPTVACVVLAYPAGLGRSVRPGFGVLVPRGQGIRTLGTIWSSCLFPQRTPAGWQVFTSMIGGATDPDLASLREEAIVEQVQQDLTRLLDLPAAKARLLGMKVWRRAIPQYIVGYPQQWQQVTHALTQTPGLFLCSNYAEGVALGDRVEHGNRTAAAVAAYLAGGQS",17
7,"CyPPO10 S60T + V165S + F360I: CyPPO10 (SEQ ID NO: 2) PPO variant (protein, Synthetic CyPPO10) MIEVDVAIVGGGLSGLSVAWRLQRSAPHYSGVLLEASDRLGGNITTQAAEGFVWELGPNTFAPTPALLQLIAEVGLHSELIRGDRHLPRYIYWRGELYPLEPTRPLALATSNLLSPWGKVRAALGALGFVPPYLGSGDESVDSFFRRHLGQEVAERLVAPFVSGSYAGDPQQLSAAAAFRRIAQLEKLGGSLIAGALRLRRQQPPQPKPPAQVQMRPGELGSFREGLAALPRAIAQQLKAPLHLQTPVEAITPEPKGGYLLRSGEQTWHARSVVLATPAYQTAELVAPFQPAIARALATIPYPTVACVVLAYPAGLGRSVRPGFGVLVPRGQGIRTLGTIWSSCLFPQRTPAGWQVFTSIIGGATDPDLASLREEAIVEQVQQDLTRLLDLPAAKARLLGMKVWRRAIPQYIVGYPQQWQQVTHALTQTPGLFLCSNYAEGVALGDRVEHGNRTAAAVAAYLAGGQS",12
8,"CyPPO10 V305T + F360I: CyPPO10 (SEQ ID NO: 2) PPO variant (protein, Synthetic CyPPO10) MIEVDVAIVGGGLSGLSVAWRLQRSAPHYSGVLLEASDRLGGNITTQAAEGFVWELGPNSFAPTPALLQLIAEVGLHSELIRGDRHLPRYIYWRGELYPLEPTRPLALATSNLLSPWGKVRAALGALGFVPPYLGSGDESVDSFFRRHLGQEVAERLVAPFVSGVYAGDPQQLSAAAAFRRIAQLEKLGGSLIAGALRLRRQQPPQPKPPAQVQMRPGELGSFREGLAALPRAIAQQLKAPLHLQTPVEAITPEPKGGYLLRSGEQTWHARSVVLATPAYQTAELVAPFQPAIARALATIPYPTTACVVLAYPAGLGRSVRPGFGVLVPRGQGIRTLGTIWSSCLFPQRTPAGWQVFTSIIGGATDPDLASLREEAIVEQVQQDLTRLLDLPAAKARLLGMKVWRRAIPQYIVGYPQQWQQVTHALTQTPGLFLCSNYAEGVALGDRVEHGNRTAAAVAAYLAGGQS",10
